# Results reported in publication PMC5638086, “Assessment of the protein interaction between coagulation factor XII and corn trypsin inhibitor by molecular docking and biochemical validation” (Journal of Thrombosis and Haemostasis, 2017).
# Target: Full length activated FXIIa (α‐FXIIa) (UniProt P00748)
IC50 of inhibition of α‐FXIIa enzymatic activity (S‐2302 cleavage),pIC50 of inhibition of α‐FXIIa enzymatic activity (S‐2302 cleavage),Substance
110 nM,6.97,rec‐CTI W37A (natural protein)
120 nM,6.94,recombinant CTI (rec‐CTI) (natural protein)
140 nM,6.85,rec‐CTI E39A (natural protein)
170 nM,6.78,rec‐CTI R27A (natural protein)

# Further lines, the substance ahead of its results:
Substance,IC50 of inhibition of α‐FXIIa enzymatic activity (S‐2302 cleavage),pIC50 of inhibition of α‐FXIIa enzymatic activity (S‐2302 cleavage)
rec‐CTI R27A/E39A (natural protein),260 nM,6.58
rec‐CTI R42A/R43A (natural protein),11000 nM,4.98
rec‐CTI G30W (natural protein),480 nM,6.32
rec‐CTI G32W (natural protein),13000 nM,4.89
rec‐CTI L35A (natural protein),4900 nM,5.31
rec‐CTI W22A (natural protein),19000 nM,4.72
rec‐CTI R27A/R42A (natural protein),160 nM,6.8
rec‐CTI R42A (natural protein),190 nM,6.72
